Reference: patent US20120003244A1 (published 2012)

Target: T1, c-myc-tagged wild-type human APCDD1 (human, UniProt Q8J025 27-514, limits assumed)
T1 construct: Expressed from pCXN2.1 in HEK293T cells; also called c-myc-tagged APCDD1; not shown: C-terminal c-myc tag
Test: immunoprecipitation with anti-c-myc antibody from co-transfected HEK293T cells, western blot with anti-HA
From the text: To examine the 130 KDa fragment, we overexpressed both HA-tagged and c-myc-tagged APCDD1 in HEK293T cells, and performed immunoprecipitation using an anti-c-myc antibody, which was followed by western blot with an anti-HA antibody. […] By contrast, only a faint fragment, 52 KDa in size, was detected in total cell lysate of the L9R mutant construct-transfected cells (FIG. 3C; lane 2, top panel). In addition, a 65 KDa fragment was detected in the medium of the wild-type and the control L9V mutant APCDD1 construct-transfected cells, while no fragment in the medium of the L9R mutant construct-transfected cells (FIG. 3C; lanes 1-3, bottom panel).
Immunoprecipitation. Expression plasmids of HA-tagged APCDD1 and c-myc-tagged APCDD1 (4 μg each) were co-transfected into HEK293T cells as described above. 48 h after the transfection, the cells were harvested and homogenized in lysis buffer (50 mM Tris-HCl (pH 8.0), 150 mM NaCl, 0.5% NP40, and 1× Complete Mini Protease Inhibitor Cocktail). Total cell lysates were collected by centrifugation at 14,000 rpm for 20 min at 4° C. The samples were incubated with 0.3 μg of normal rabbit IgG (Santa Cruz Biotechnology) and 10 μl of protein A/G plus agarose (Santa Cruz) for 30 min at 4° C., and centrifuged at 10,000 rpm for 1 min at 4° C. […]

B1: C-terminal HA-tagged wild-type human APCDD1 (SWAMP-HA; pCXN2.1-Wt-SWAMP-HA) (receptor)
chain: not shown
notes: Expressed from pCXN2.1 in HEK293T cells; also called HA-tagged APCDD1; HA-tagged SWAMP; not shown: C-terminal HA (hemagglutinin) tag
binding result: binds
